The nature of this series: amyloid nucleation score (Sup35N fusion, yeast selection) (log enrichment); library NNK1; higher = more nucleation; inactive = no reads after selection. The essentials: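 Sup35N was fused to peptides of 20 random codons and expressed in psi-negative yeast, which were induced with 100 μM copper sulfate for 24 hours and then grown on medium lacking adenine and uracil for 7 days at 30°C. Plasmid inserts from input and output were sequenced on Illumina. The nucleation score is the DiMSum log enrichment of output over input reads, centred on the mode score of non-aggregating sequences. Sequences with under 100 input reads were left out, and random libraries had three technical output replicates.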

± gives the uncertainty stated by the source.

Regarding QSPKQILWR, the amyloid nucleation score was found to be 1.11 ± 0.63.

In turn, KDSGYMCWMGDLCVWSP had an amyloid nucleation score of 5.97 ± 0.097.

Take HEFYSVLMGHFVWLQPWETR: the amyloid nucleation score worked out at 0.839 ± 1.1.

Turning to VVKSEVNTVA, the amyloid nucleation score was 1.27 ± 0.62.

HWSSFPNVLYIM had an amyloid nucleation score of -0.106 ± 0.44.

The substance MYCFLAKDLRVTEKFWRRGS had an amyloid nucleation score of -0.448 ± 0.64.

The substance GLWLQL came in with an amyloid nucleation score of 0.216 ± 0.26.

The substance KCMFVESKSRDNCVMSNES yielded an amyloid nucleation score of -0.055 ± 0.9.

As to FDIDDIICIM, the amyloid nucleation score is -1.89 ± 1.4.

Consider RGCSFFWCPLCRGYGGCLCC, for which the amyloid nucleation score is 0.482 ± 0.74.

Consider ISQKNDAMNYYIGMSQM, for which the amyloid nucleation score came to 1.52 ± 0.34.

LCWRYMVLRMNFFAADLYYN: the amyloid nucleation score was determined as 1.39 ± 0.32.

In turn, ELTYFGNI displayed an amyloid nucleation score of 1.5 ± 0.24.

ASSLDLFNWASVWFFNYIGA yielded an amyloid nucleation score of -0.887 ± 0.86.

In the case of FVVEWWLASRMGLLIRGYRR, the amyloid nucleation score is -0.462 ± 0.58.

The substance LLLAY showed an amyloid nucleation score of -0.716 ± 0.44.

Take CSRTRRSHSIECACCKYIFA: the amyloid nucleation score is -0.343 ± 0.47.

Take CVVFAVKGCAGGWTRFMLDN: the amyloid nucleation score was -0.268 ± 0.4.

With GGVISESTGYLRLIHRRWDG, the amyloid nucleation score is -0.751 ± 1.7.

With HWTTHESRKMVGQRFQPVGG, the amyloid nucleation score was found to be 0.078 ± 0.34.

For the substance GLMNSRYMYVVNMS, the amyloid nucleation score was determined as 0.758 ± 0.4.

For LYANNMLSGILCNGFSTITS, the amyloid nucleation score is -0.339 ± 0.63.

MIKSPTVKGFRMLCSVRGRD displayed an amyloid nucleation score of -0.284 ± 0.44.

For SGLLVITFVNEFLYKNVYPL, the amyloid nucleation score worked out at 1.95 ± 0.25.

For the substance FWGNGQRVNSNIQRDVKWDA, the amyloid nucleation score was -0.199 ± 0.45.

Substance WWGWKIDTNAQILARLCKCL came in with an amyloid nucleation score of -0.005 ± 1.2.

Substance LIGHRSRS had an amyloid nucleation score of -1.57 ± 1.1.

MSYMCLNRYILVGYCWVQTT: the amyloid nucleation score is 0.312 ± 0.66.

Consider TIINLGILLYYVGFFSIDPG, for which the amyloid nucleation score came out at 5.866 ± 0.052.

With VPYVISINSMVWVGHRPVLP, the amyloid nucleation score amounted to 6.132 ± 0.057.

EANMIYFLNGANLHRFFKHF returned an amyloid nucleation score of 1.59 ± 0.35.

As to FEFIVMEIAC, the amyloid nucleation score is -0.189 ± 0.35.

Substance TGYRSTYLNEVTPIRIMPHR came in with an amyloid nucleation score of 0.905 ± 0.4.

Consider GSMNVECDRDRDRYNVCHYR, for which the amyloid nucleation score is -0.569 ± 0.39.

In the case of AACLCLYAFGRYVVTRCYGR, the amyloid nucleation score is -0.068 ± 0.69.

The substance LKWWWIQNAGCTVVIMVL showed an amyloid nucleation score of -0.701 ± 0.54.

On to LNRSNWANFCMAEFMDPRS, for which the amyloid nucleation score worked out at 0.488 ± 0.58.

Consider LDCELLQRNFSNTKGHPIYR, for which the amyloid nucleation score is 0.052 ± 0.35.

The substance RTPCLSESGPFSGFQHPGDI gave an amyloid nucleation score of -0.66 ± 1.2.

FFHNTSHASYIK: the amyloid nucleation score worked out at 1.09 ± 0.13.

For YNRIIYYCGVM, the amyloid nucleation score worked out at 0.782 ± 0.97.

YFDRNFARYFCYRVTTT registered an amyloid nucleation score of 1.48 ± 0.2.

As for DWFLTLAKVYSLNGQVFRMR, the amyloid nucleation score entry is “inactive”.

As to LASTVSDWN, the amyloid nucleation score is 0.32 ± 0.39.

The substance MSSVLFYYGFNTFEYSDMYM displayed an amyloid nucleation score of -0.15 ± 0.33.

Substance ISNCYQVKALFVSHFLIRDR showed an amyloid nucleation score of 4.29 ± 0.047.

Consider TLLNGFFATSYCGCFFGSRT, for which the amyloid nucleation score was determined as 3.95 ± 0.13.

On to LWGRGCMCWVVVARCFWPLR, for which the amyloid nucleation score was -0.153 ± 1.4.

HTYSWKISDSSYPTFPELFW registered an amyloid nucleation score of 0.121 ± 0.39.

For the substance NSPGCKCRSKGLISINST, the amyloid nucleation score entry is “inactive”.

Regarding CLISP, the amyloid nucleation score entry was “inactive”.

The substance CFLIVHLNSRSDTCHEGSEC had an amyloid nucleation score of -0.081 ± 0.54.

In turn, VTFLFNFWHVFC showed an amyloid nucleation score of 6.95 ± 0.074.

The substance EYNQG displayed an amyloid nucleation score of -0.76 ± 1.2.

Substance YSVQIMSKNITWVKVCPASK yielded an amyloid nucleation score of 5.19 ± 0.071.

As for ILTMVEILKTIRGSA, the amyloid nucleation score was -0.316 ± 0.47.

NVSSLQDFRVMFWIFECTTR returned an amyloid nucleation score of 0.052 ± 0.44.

Take YSVSCSVF: the amyloid nucleation score is -0.341 ± 0.31.

Consider DQRRGFSMETSYTD, for which the amyloid nucleation score amounted to 1.42 ± 0.71.

IKPANYA gave an amyloid nucleation score of -0.679 ± 0.53.

With SALILVFFYWA, the amyloid nucleation score came to 1.31 ± 0.3.

In turn, HIKHSMMFGTYTK gave an amyloid nucleation score of -1.2 ± 0.72.

Substance NFAYGVNYLSAVKGCFTFAR gave an amyloid nucleation score of -0.206 ± 1.5.

In the case of RSADTLVEKNLIYGRWVRKS, the amyloid nucleation score amounted to 0.93 ± 1.

In turn, DLIRPLSCTRVLSPNFLCS showed an amyloid nucleation score of -0.54 ± 0.66.

In the case of NISCDRGMLG, the amyloid nucleation score result was “inactive”.

As for FKYSFMIYNLARSVCYCTVS, the amyloid nucleation score was -0.002 ± 1.4.

For the substance FLSYYTCILFPGDMHGSYLS, the amyloid nucleation score was determined as 7.226 ± 0.055.

On to MVVVIIYL, for which the amyloid nucleation score amounted to 1.53 ± 0.35.

Take RVSCFRTRDRIFGVFTQSQV: the amyloid nucleation score is -0.314 ± 1.2.

Substance NPCWTVYLEFL registered an amyloid nucleation score of 0.186 ± 0.27.

Substance DMVEMVHCSCF had an amyloid nucleation score of 1.49 ± 0.21.

Take VPCLVRA: the amyloid nucleation score turned out to be 0.506 ± 0.99.

For the substance VWRSFKSMHSHRSNSNALWL, the amyloid nucleation score was 1.96 ± 0.6.

Take LYASASADHSRQRREGTPVL: the amyloid nucleation score is -0.54 ± 0.59.

For the substance MSQDR, the amyloid nucleation score was -0.061 ± 0.94.

In turn, GNFCFPMAYTGLVFGEMLSF displayed an amyloid nucleation score of 0.1 ± 0.24.

THGVSWQLVRDAILNGGPKR came in with an amyloid nucleation score of -1.12 ± 1.3.

YNEERGCSAC came in with an amyloid nucleation score of -0.209 ± 0.33.

GFVPLWLW displayed an amyloid nucleation score of 0.977 ± 0.8.

Regarding SHEGIIMLMLTHQFSW, the amyloid nucleation score is 2.07 ± 0.14.

DLLTWDCLEHDVDMLLVGPN: the amyloid nucleation score was 0.152 ± 0.36.

Turning to IYPILVMSASQA, the amyloid nucleation score worked out at 0.549 ± 0.69.

Take WASTLEDVMRQEKVHLWMIG: the amyloid nucleation score was -0.242 ± 0.3.

Turning to INHVMHGMEVRRGVNGRWMY, the amyloid nucleation score was 0.312 ± 1.1.

Substance SFYYWHPIALVWYGGARYKC yielded an amyloid nucleation score of 1.35 ± 0.43.

In the case of RMPRCKVFSVFSLLHAQY, the amyloid nucleation score was found to be 1.35 ± 0.9.

Take GRILYEAYTPVERVYAWCSA: the amyloid nucleation score entry is “inactive”.

DRKVGNHLFTRVCDEATMLM yielded an amyloid nucleation score of 1.75 ± 0.41.

Substance RWFRNAIGGIL returned an amyloid nucleation score of -0.586 ± 0.59.

Take TCRESMRYVDNGLAFYSWFY: the amyloid nucleation score was -0.983 ± 0.56.

Consider CANGLLRDLVQAI, for which the amyloid nucleation score was determined as 0.547 ± 0.61.

Take MLFCVTRSVFSENCSLSLCT: the amyloid nucleation score entry was “inactive”.

For FGLQWSSKAACVLTCKQSLR, the amyloid nucleation score result is “inactive”.

EHKWAANLDDMVHLDRHNMQ displayed an amyloid nucleation score of 0.435 ± 0.72.

In the case of FPDLYVWRCWKSQGHSWHGV, the amyloid nucleation score was 0.573 ± 0.52.

FWIEGP registered an amyloid nucleation score of 0.564 ± 0.9.

DCRFNRGGFNNVR registered an amyloid nucleation score of 0.514 ± 0.31.

SAYSILSTMFIYFVKSQGTD showed an amyloid nucleation score of 3.38 ± 0.058.

As to VKNWMYWQGMSVCRVCRGFY, the amyloid nucleation score came out at 1.02 ± 0.38.

On to MVTEDEERMANLSWHESGAY, for which the amyloid nucleation score was -1.07 ± 0.74.

In the case of YALGVAFSQNSYDT, the amyloid nucleation score was found to be 0.669 ± 0.63.

VLILVDGSKMAPTALSCYSH registered an amyloid nucleation score of 1.34 ± 0.49.

Regarding WNIRRIRSDTRTLFKCNL, the amyloid nucleation score amounted to 0.636 ± 0.32.

The record behind these values is the supplement of paper PMC12042874.
